# T1: Ang2 (UniProt O15123 19-496)
# T1 chain: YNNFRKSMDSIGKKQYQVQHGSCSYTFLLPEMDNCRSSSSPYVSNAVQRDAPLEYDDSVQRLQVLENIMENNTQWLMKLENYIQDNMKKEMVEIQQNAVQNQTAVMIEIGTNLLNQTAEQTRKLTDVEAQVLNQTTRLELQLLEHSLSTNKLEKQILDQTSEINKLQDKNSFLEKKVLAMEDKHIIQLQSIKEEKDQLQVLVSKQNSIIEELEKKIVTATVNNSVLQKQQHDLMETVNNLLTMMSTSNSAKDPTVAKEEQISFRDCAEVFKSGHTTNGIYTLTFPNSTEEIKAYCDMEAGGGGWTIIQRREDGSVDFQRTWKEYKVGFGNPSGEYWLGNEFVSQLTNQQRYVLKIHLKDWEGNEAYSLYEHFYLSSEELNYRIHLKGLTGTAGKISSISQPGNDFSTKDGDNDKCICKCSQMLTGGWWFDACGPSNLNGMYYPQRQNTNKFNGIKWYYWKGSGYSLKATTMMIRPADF
# B1: L1-7D MDD (ZC12) (peptide)
# chain: AQTNFMPMDNDEGLLYEQFI
# B2: L1-7D MND (4H4) (peptide)
# chain: AQTNFMPMDQDELLLYEQFI
# B3: L1-7D MSD (7B2) (peptide)
# chain: KSLSLSPGGNGTTNFMPMDQDEALLYEEFI
# B4: L1-7D MQD (1A12) (peptide)
# chain: AQTNFMPMDNDEALLYEQFI
# B5: L1-7D MKD (5A8) (peptide)
# chain: AQTNFMPMDDDELLLYEQFIL
# B6: L1-7D MAD (6A3) (peptide)
# chain: AQTNFMPMDQDEALLYEEFIC
# B7: L1-7D MHD (3C3) (peptide)
# chain: AQTNFMPMDNDEALLYEEFI
# B8: L1-7D MVD (2A1) (peptide)
# chain: AQTNFMPMDNDEGLLYEEFI
# Target: T1, Ang2
# Assay: direct binding ELISA; MBP fusion
row,EC50 [nM],Binder
1,0.153,B1
2,0.411,B2
3,1.38,B3
4,> 100,B4
5,> 100,B5
6,> 100,B6
7,17,B7
8,> 100,B8
